Laboratory results taken from patent publication US6710030.
Each block holds one substance with its values, some of them ahead of it.

How the values were obtained:
Assay in all cases: cell-based or functional assay
[1] = molecular target: integrin receptors on the surface of MDA-MB-435 cells
[2] = molecular target: integrin αvβ3 on cells (T24, MDA-MB-435, β3-transfected 293 cells) (human) (UniProt P06756)
[3] = molecular target: integrin αvβ5 on cells (T24, T24-β3 neg., OVCAR-5) (human) (UniProt P06756)
Chain of integrin αvβ5 on cells (T24, T24-β3 neg., OVCAR-5) (human) (P06756 31-1048, chain 1 of 2): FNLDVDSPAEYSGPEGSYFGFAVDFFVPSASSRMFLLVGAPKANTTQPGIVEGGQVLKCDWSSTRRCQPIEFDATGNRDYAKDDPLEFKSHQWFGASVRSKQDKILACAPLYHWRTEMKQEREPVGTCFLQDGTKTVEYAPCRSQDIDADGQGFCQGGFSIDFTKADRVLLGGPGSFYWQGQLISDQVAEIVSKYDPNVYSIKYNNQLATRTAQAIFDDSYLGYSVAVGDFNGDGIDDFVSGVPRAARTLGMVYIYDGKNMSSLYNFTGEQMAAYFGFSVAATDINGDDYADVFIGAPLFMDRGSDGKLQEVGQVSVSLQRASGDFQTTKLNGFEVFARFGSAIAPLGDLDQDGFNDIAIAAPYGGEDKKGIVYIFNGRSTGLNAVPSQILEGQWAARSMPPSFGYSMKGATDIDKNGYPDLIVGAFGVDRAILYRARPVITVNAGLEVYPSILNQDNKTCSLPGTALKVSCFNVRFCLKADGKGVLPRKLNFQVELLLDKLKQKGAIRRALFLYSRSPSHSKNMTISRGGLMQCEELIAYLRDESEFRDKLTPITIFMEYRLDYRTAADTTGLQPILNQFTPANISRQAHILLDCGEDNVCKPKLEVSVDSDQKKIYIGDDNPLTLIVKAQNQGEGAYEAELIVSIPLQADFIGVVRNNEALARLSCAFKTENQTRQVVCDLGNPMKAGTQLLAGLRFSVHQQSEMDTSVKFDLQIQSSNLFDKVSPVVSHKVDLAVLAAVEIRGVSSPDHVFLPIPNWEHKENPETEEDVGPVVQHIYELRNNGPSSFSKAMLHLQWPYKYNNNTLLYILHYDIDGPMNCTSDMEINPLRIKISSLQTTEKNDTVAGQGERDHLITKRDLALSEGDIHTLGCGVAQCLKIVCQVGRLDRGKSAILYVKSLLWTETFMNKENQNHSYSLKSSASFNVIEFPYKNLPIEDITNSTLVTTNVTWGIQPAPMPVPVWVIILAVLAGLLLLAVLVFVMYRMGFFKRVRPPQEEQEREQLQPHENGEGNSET
Chain of integrin αvβ5 on cells (T24, T24-β3 neg., OVCAR-5) (human) (P18084 24-799, chain 2 of 2, further chain): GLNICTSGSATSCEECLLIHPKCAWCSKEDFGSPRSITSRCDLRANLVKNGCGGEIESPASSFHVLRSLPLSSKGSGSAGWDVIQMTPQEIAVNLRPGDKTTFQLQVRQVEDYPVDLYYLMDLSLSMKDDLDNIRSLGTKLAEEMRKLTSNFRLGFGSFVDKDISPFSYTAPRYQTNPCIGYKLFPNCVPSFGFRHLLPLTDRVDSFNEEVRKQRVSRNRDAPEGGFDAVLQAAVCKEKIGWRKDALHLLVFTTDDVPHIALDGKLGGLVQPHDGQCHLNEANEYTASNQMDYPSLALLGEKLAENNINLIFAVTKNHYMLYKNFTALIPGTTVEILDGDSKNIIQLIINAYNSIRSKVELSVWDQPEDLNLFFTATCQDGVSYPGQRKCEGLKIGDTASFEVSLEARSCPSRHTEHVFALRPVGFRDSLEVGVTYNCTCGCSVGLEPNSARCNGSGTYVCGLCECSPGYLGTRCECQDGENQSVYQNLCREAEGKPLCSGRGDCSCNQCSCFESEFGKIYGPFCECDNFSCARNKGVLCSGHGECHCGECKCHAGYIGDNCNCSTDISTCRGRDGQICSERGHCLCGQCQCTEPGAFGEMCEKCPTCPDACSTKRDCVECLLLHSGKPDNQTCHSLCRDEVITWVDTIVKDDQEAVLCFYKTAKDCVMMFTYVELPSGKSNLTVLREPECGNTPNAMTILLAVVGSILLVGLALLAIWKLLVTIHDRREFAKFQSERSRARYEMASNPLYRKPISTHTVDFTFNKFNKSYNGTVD

Chain of integrin αvβ3 on cells (T24, MDA-MB-435, β3-transfected 293 cells) (human) (P06756 31-1048, chain 1 of 2): as the sequence (P06756 31-1048, chain 1 of 2) above
Chain of integrin αvβ3 on cells (T24, MDA-MB-435, β3-transfected 293 cells) (human) (P05106 27-788, chain 2 of 2, further chain): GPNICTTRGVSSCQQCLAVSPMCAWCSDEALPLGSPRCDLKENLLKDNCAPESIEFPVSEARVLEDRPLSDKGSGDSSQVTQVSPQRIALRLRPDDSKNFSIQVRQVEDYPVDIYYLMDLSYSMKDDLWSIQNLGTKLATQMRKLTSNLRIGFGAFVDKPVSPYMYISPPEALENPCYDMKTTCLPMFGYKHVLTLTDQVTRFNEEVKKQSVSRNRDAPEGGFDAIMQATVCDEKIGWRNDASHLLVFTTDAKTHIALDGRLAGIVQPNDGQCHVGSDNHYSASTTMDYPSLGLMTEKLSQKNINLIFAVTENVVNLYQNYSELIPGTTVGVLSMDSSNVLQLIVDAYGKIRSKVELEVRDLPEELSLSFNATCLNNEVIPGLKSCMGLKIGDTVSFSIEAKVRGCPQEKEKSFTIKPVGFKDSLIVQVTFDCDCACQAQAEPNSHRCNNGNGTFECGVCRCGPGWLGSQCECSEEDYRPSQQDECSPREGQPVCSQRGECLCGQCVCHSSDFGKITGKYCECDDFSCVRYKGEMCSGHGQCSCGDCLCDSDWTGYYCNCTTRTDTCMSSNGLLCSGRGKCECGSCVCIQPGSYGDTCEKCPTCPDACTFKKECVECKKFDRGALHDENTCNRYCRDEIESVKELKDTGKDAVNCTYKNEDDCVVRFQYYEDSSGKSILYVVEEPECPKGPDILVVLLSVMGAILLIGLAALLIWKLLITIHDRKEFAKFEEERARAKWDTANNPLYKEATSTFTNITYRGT

Substance: RGD peptide GRGDSP
inhibition of binding of MDA-MB-435 cells to immobilized CN (IC50) [1]: 400 µM

inhibition of adhesion of T24 cells to immobilized vitronectin [2]: < 40%
Substance: 7E3, murine monoclonal antibody against (GP)IIb/IIIa that also binds αvβ3

inhibition of adhesion of T24-β3 neg. cells to immobilized vitronectin [3]: 80% | inhibition of adhesion of T24 cells to immobilized vitronectin [3]: < 40%
Substance: P1F6, anti-αvβ5 monoclonal antibody
